Reference: patent US20050271676A1, “Inducing cellular immune responses to human immunodeficiency virus-1 using peptide and nucleic acid compositions” (Epimmune Inc., priority 1993, published 2005)
No end group written: not given here.

What was measured:
HLA-DRB1*0401 (DR4w4) = target: T1, HLA-DRB1*0401 (DR4w4) (Homo sapiens, UniProt P01903+P01911, A100K/A169T/F76Y/I96L/K127E/L162R/M171V/N62H/P40V/Q125Y/R42H/S133A/S149N/S66Y/V115G/V209L/W38E); test: purified HLA class II binding assay, DRB1*0401 (DR4w4); conditions: for DR4w4 binding: HIV DR super motif peptides, unit not given
T1 construct: endogenous in cells; host or cells: Preiss

HLA-DRB1*1101 (DR5w11) = target: T2, HLA-DRB1*1101 (DR5w11) (Homo sapiens, UniProt P01903+P01911, A100R/A169T/A87E/I96F/K41T/L162R/M171V/P40S/Q125H/Q178H/Q39Y/Q99D/R42S/S66Y/T262R/V115G/W38E); test: biochemical; format: binding
T2 construct: endogenous in cells

HLA-DRB1*0301 (DR3) = target: T3, HLA-DRB1*0301 (DR3) (Homo sapiens, UniProt P01903+P01911, A100K/A102G/A103R/A169T/F55Y/I96L/K41T/L162R/M171V/P40S/Q125H/Q178H/Q39Y/R42S/S66N/T106N/T262R/W38E/Y61H); test: purified HLA class II binding assay, DRB1*0301 (DR3), pH 4.5; conditions: Table XXb, HIV DR 3a motif peptides
T3 construct: endogenous in cells; host or cells: MAT

HLA-DRB5*0101 (DR2w2β2) = target: T4, HLA-DRB5*0101 (DR2w2β2) (Homo sapiens, UniProt P01903+Q30154); test: biochemical; format: binding
T4 construct: expressed in transfected cells

HLA-A*3101 = HLA-A*3101 (Homo sapiens, UniProt P04439, A270S/D185E/E176V/E277Q/F33T/G231S/G80R/H175R/I121M/I218V/I322F/K168Q/L300P/L318F/M331R/P217A/Q94H/R138Q/T323A/T345S/T97I/V358M); test: purified HLA class I binding assay, A*3101; conditions: for A*3101 binding information: Table IX, unit not given
HLA-A*6801 = HLA-A*6801 (Homo sapiens, UniProt P04439, A269V/D185E/E176V/E277Q/E87N/F33Y/G231S/I121M/I166T/I218V/L180W/L300P/L318F/N151K/P208A/P217A/Q86R/R169H/T345S); test: purified HLA class I binding assay, A*6801; conditions: for A*6801 binding information: Table IX, unit not given
HLA-A*1101 = HLA-A*1101 (Homo sapiens, UniProt P04439, A114D/D185E/E176A/F33Y/L180Q/S129P/T187R); test: purified HLA class I binding assay, A*1101
HLA-A*0301 = target: T5, HLA-A*0301 (Homo sapiens, UniProt P04439); test: purified HLA class I binding assay, A*0301; conditions: for A*0301 binding information: Table IX
T5 construct: endogenous in cells; host or cells: GM3107

HLA-A*3301 = HLA-A*3301 (Homo sapiens, UniProt P04439, A270S/D185E/E176V/E277Q/E87N/F33T/G231S/H175R/I121M/I218V/I322F/K168Q/K210R/L300P/L318F/M331R/P217A/Q86R/Q94H/R138Q/T323A/T345S/T97I/V358M/Y195H); test: purified HLA class I binding assay, A*3301
HLA-DRB1*0701 (DR7) = target: T6, HLA-DRB1*0701 (DR7) (Homo sapiens, UniProt P01903+P01911, A100R/A102G/A103Q/D57E/D86V/E43K/F76Y/K127E/L162R/M171V/P40G/Q125H/Q99D/R33Q/R42Y/R54Q/S133A/S66F/T210M/V115G/Y107V/Y59L/Y89S); test: biochemical; format: binding
T6 construct: endogenous in cells; host or cells: Pitout

HLA-A*2402 = HLA-A*2402 (Homo sapiens, UniProt P04439, D101N/D140Y/D185E/E176V/E190D/F33S/G103R/G107R/I119L/I121M/I306V/K335N/L105A/L180Q/L300P/N151K/N90K/Q86E/Q94H/R106L/R138H/R89G/T104I/T345S/V100E/W191G/Y123F); test: purified HLA class I binding assay, A*2402
[1] = HIV A03 supermotif peptides, Table IX, unit not given
[2] = HIV A03 supermotif peptides, unit not given
[3] = HIV A03 motif peptides, Table XVI, unit not given
[4] = HIV A03 super motif peptides, binding value
[5] = Table IX, HIV A03 super motif peptides, binding value, unit not given
[6] = HIV A03 super motif peptides, binding value, unit not given

T1 sequence (P01903 26-254 partner, other chains not shown): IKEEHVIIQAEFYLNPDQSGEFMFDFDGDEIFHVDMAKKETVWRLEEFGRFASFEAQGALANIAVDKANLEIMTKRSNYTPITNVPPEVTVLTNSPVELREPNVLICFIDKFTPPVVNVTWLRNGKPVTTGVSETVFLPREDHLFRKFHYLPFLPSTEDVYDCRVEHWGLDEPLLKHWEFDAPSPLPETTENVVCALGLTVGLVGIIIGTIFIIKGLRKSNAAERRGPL
T2 sequence (P01903 26-254, other chains not shown): as the sequence (P01903 26-254 partner, other chains not shown) above
T3 sequence (P01903 26-254 partner, other chains not shown): as above

## PPVVAKEIVASCDKC
HLA-DRB1*0401 (DR4w4); Table XXb, HIV DR 3a motif peptides
  DR4w4 binding information: 0.0085
HLA-DRB1*1101 (DR5w11)
  DR5w11 binding information: 0.0006
HLA-DRB1*0301 (DR3)
  DR3 binding information: −0.0130
HLA-DRB5*0101 (DR2w2β2)
  DR2w2β2 binding information: −0.0021

## QARYLAVER
HLA-A*3101; HIV A03 supermotif peptides
  A*3101 binding information: 0.0320
HLA-A*6801; HIV A03 supermotif peptides
  A*6801 binding information: 0.0007
HLA-A*1101; [1]
  A*1101 (binding information): 0.0003
HLA-A*0301; [2]
  A*0301 binding information: 0.0009

## QMVIIQAISPR
HLA-A*3101; HIV A03 supermotif peptides
  A*3101 binding information: 0.0740
HLA-A*6801; HIV A03 supermotif peptides
  A*6801 binding information: 0.0430
HLA-A*1101; [1]
  A*1101 (binding information): 0.0010
HLA-A*0301; HIV A03 motif peptides, Table XVI, binding value unit not given
  A0301 (binding information): 0.0260
HLA-A*0301; [2]
  A*0301 binding information: 0.0260

## TIKIGGQLK [1273.05]
HLA-A*3101
  IC50: 18 µM
HLA-A*3301
  IC50: 36.3 µM
HLA-A*0301
  IC50: 40.7 nM

## TLFCASDAK [1273.06]
HLA-A*3101
  IC50: 10.6 µM
HLA-A*6801
  IC50: 191 nM

## TVQCTIIGIK
HLA-A*3101; HIV A03 supermotif peptides
  A*3101 binding information: 0.0042
HLA-A*6801; HIV A03 supermotif peptides
  A*6801 binding information: 0.0190
HLA-A*1101; [1]
  A*1101 (binding information): 0.0460
HLA-A*0301; [3]
  A0301 (binding information): 0.0021
HLA-A*0301; [2]
  A*0301 binding information: 0.0021

## TVQCTIIGIR
HLA-A*3101; HIV A03 supermotif peptides
  A*3101 binding information: 0.0880
HLA-A*6801; HIV A03 supermotif peptides
  A*6801 binding information: 0.0120
HLA-A*1101; [1]
  A*1101 (binding information): 0.0008
HLA-A*1101; Table XVII, HIV A11 motif peptides, binding value for purified HLA-A*1101, unit not given
  A*1101 (binding information): 0.0008
HLA-A*0301; [3]
  A0301 (binding information): 0.0008
HLA-A*0301; [2]
  A*0301 binding information: 0.0008

## VIFMFSALSEGATPQ
HLA-DRB1*0701 (DR7)
  DR7 binding: −0.0007
HLA-DRB1*0401 (DR4w4)
  DR4w4 binding: 0.0058
HLA-DRB1*1101 (DR5w11)
  DR5w11 binding: −0.0010
HLA-DRB5*0101 (DR2w2β2)
  DR2w2β2 binding: −0.0014

## VMIVWQVDR [Peptide 1273.08]
HLA-A*3101
  IC50: 0.0038 µM
HLA-A*3301
  IC50: 0.0053 µM
HLA-A*1101
  IC50: 273 nM

## VTVYYGVPVWKEATI
HLA-DRB1*0701 (DR7)
  DR7 binding: 0.0160
HLA-DRB1*0401 (DR4w4)
  DR4w4 binding: 0.0071
HLA-DRB1*1101 (DR5w11)
  DR5w11 binding: 0.0021
HLA-DRB5*0101 (DR2w2β2)
  DR2w2β2 binding: 0.0270

## WMGYELIIPDK
HLA-A*3101; [4]
  A*3101 binding information: 0.0009
HLA-A*6801; [4]
  A*6801 binding information: 0.0003
HLA-A*1101; [5]
  A*1101 (binding information): 0.0004
HLA-A*1101; Table XVII, HIV A11 motif peptides, binding value A*1101, unit not given
  A*1101 (binding information): 0.0004
HLA-A*0301; [6]
  A*0301 binding information: 0.0005

## YLAWVPAIIK
HLA-A*3101; [4]
  A*3101 binding information: 0.0550
HLA-A*6801; [4]
  A*6801 binding information: 4.0000
HLA-A*1101; [5]
  A*1101 (binding information): 0.0570
HLA-A*1101; binding value to purified HLA-A*1101 in Table XVII, unit not given
  A*1101 (HIV A11 Motif Peptides with Binding Information): 0.0570
HLA-A*0301; HIV A03 motif peptides, Table XVI, column A0301, unit not given
  A0301 binding: 0.0770
HLA-A*0301; [6]
  A*0301 binding information: 0.0770

## YWQATWIPE
HLA-A*2402; HIV A24 motif peptides, purified HLA-A24 molecule, unit not given
  A*2401 (binding information): 0.0660
HLA-A*2402; HIV A24 supermotif peptides, binding value printed without unit in Table X
  A*2401 (binding information): 0.0660
